# Entries after “also recorded” stand apart in the source; their conditions may differ.
# Tests used:
# Ndr = conditions: transphosphorylation; cited from earlier work
# GST-Ndr [1] = molecular target: T1, GST-Ndr (Homo sapiens, UniProt Q15208); assay: Ndr peptide substrate phosphorylation assay; assay type: biochemical; conditions: 0.5 mg/ml peptide, 3 h at 30° C., KKRNRRLSVA = 100%
# T1 construct: made in house
# Protocol: When incubated in vitro with Mg-ATP, Ndr incorpora tes phosphate by an intramolecular autophosphorylation mechanism (Millward, T. A., et al., (1995) Proc. Natl. Acad. Sci. USA 92, 5022-5026). […] To develop a convenient in vitro kinase assay for Ndr, an assembled library of synthetic peptides is screened for potential Ndr substrates. 5 μg GST-Ndr WT or GST-Ndr K118A (Miliward, T. A., et al., (1995) Proc. Natl. Acad. Sci. USA 92, 5022-5026), immobilised on 2.5 μl glutathione-agarose beads (Sigma), is assayed in a 25 μl reaction containing 50 mM Tris-HCl pH 7.5, […] MgCl2, 1 mM dithiothreitol, 100 μM [γ-^32 P] ATP (0.3 μCi/μl) and 0.5 mg/ml peptide. After incubation at 3 h at 30° C. (during which time phosphate incorporation into peptides is linear), aliquots of the reaction are spotted onto 2 cm^2 squares of P81 phosphocellulose paper (Whatman), which are then washed 5×5 min in 1% phosphoric acid and once in acetone, before counting in a liquid scintillation counter.
# Several peptides are identified which could serve as Ndr substrates (Table 1; SEQ. ID. No. 1 to 31). By comparing the efficiency of phosphorylation of the various peptides, several conclusions regarding the substrate specificity of Ndr can be drawn. […] Secondly, most of the peptides which are detectably phosphorylated contained a basic amino acid at position -6 relative to the phosphoaccepting serine. […] A basic amino acid at -6 is however not sufficient for substrate recognition, since this peptide is also not phosphorylated. Thirdly, a basic residue at -5 appeared to be also important, although not essential, for efficient phosphorylation by Ndr. Basic amino acids at -3, -2 and -7 are also important. Proline at +1 appears to be inhibitory, whilst the presence of amino acids carboxy-terminal to the phosphoacceptor is important, removal of the residue at +2 reducing activity. The best Ndr substrate from these series of peptides is ([…], SEQ. ID. No. 1), and this peptide is used for Ndr kinase assays in subsequent experiments.
# HA-Ndr WT [2] = assay: A23187 treatment of COS-1 cells co-expressing HA-Ndr WT and S100B, Ndr kinase activity; assay type: cell-based; conditions: 20 μM A23187
# Protocol: In order to provide direct evidence that Ca^2+ /S100B regulates Ndr activity in vivo, COS-1 cells are co-transfected with expression constructs for Ndr and S100B (pECE-HA-Ndr, which expresses haemaglutinin epitope-tagged Ndr from an SV40 promoter, and pECE-S100B). Two Ndr constructs are used, expressing either wild-type Ndr (Ndr WT) or Ndr lacking the previously identified S100B binding domain (Ndr Δ65-81).Then, the cells are treated for various lengths of time with 20 μM A23187, a calcium ionophore.
# [3] = immune complex kinase assay, basal kinase activity of Ndr mutants; assay type: biochemical; conditions: compared with wild-type Ndr
# Protocol: In immune complex kinase assays and autophosphorylation assays (see below), COS-1 cells are transfected as described above or with pECE-Ndr-K118A. After 72 h, cells are washed with ice-cold PBS and lysed in lysis buffer (20 mM Tris-HCl pH 8.0, 150 mM NaCl, 1% (v/v) NP-40, 10% (v/v) glycerol, 5 mM EDTA, 0.5 mM EGTA, 0.5 mM phenylmethyl-sulfonyl fluoride, 4 μM leupeptin, 1 mM benzamidine, 1 μM microcystin and 1 mM Na3 VO4). Lysates are centrifuged at 14,000 g for 20 min. Duplicate aliquots of supernatant (250 μg, 2.5 mg/ml) are incubated for 2 h at 0° C. with 10 μg/ml Ab^1-465. Immune complexes are precipitated by addition of 2 μl protein A-Sepharose (Pharmacia) and mixing for 1 h. The beads are then washed twice with lysis buffer, once with lysis buffer containing 1 M NaCl, with lysis buffer again, and finally twice with 20 mM Tris-HCl pH 7.5. Beads are resuspended in 30 μl buffer containing 20 mM Tris-HCl pH 7.5, 10 mM MgCl2, 100 μM CaCl2, 1 mM dithiothreitol, 100 μM [γ-^32 P] ATP (0.5 μCi/μls), 1 mM Ndr substrate peptide ([…], SEQ. ID. No. 1), 1 μM cAMP-dependent protein kinase inhibitor peptide (PKI; purchased from Bachem, Bubendorf, Swit zerland), 4 μM leupeptin, 1 mM benzamidine, 1 μM microcystin and, in some assays, 20 μM bovine S100B. After 60 min at 30° C., phosphate incorporation into the peptide is quantitated as described above. […]
# S100B = assay: co-immunoprecipitation of Ndr with anti-S100B from COS-1 cells; assay type: cell-based; conditions: co-expressed with S100B
# Protocol: For expression of Ndr and S100B in mammalian cells, the cDNAs encoding Ndr and S100B are cloned into the pECE vector, which directs expression driven by an SV40-derived promoter. In addition, an amino-terminal truncation mutant of Ndr lacking the first 84 amino acids (1-84) is used.
# The plasmids encoding Ndr and S100B are transfected into COS-1 cells, either alone or in combination. Seventy-two hours later, cells extracts are prepared and immunoprecipitated with an antibody recognising S100B. In an anti-Ndr western blot of the cell extracts, it is shown that Ndr is expressed an expected.
# calmodulin (CaM-agarose) = assay: binding of Ndr and deletion mutants from COS-1 cell lysates to CaM-agarose; conditions: lysates supplemented with Ca^2+
# Description: In addition, the ability of untagged Ndr to interact with CaM is investigated. COS-1 cells are transfected with pECE or with derivative plasmids encoding wild-type Ndr, NdrΔ65-81 or NdrΔ1-84 (Millward, T. A., et al., (1995) Proc. Natl. Acad. Sci. USA 92, 5022-5026) using DEAE-dextran (Seed, B. and Aruffo, A. (1987) Proc. Natl. Acad. Sci. USA 84, 3365-3369). Seventy-two hours after transfection, cells are scraped into ice-cold phosphate-buffered saline (PBS), spun down, and disrupted in buffer A (TBS containing 1 mM dithiothreitol, 0.5 mM phenylmethylsulfonyl fluoride, 4 μM leupeptin and 1 mM benzamidine) using a tight-fitting all-glass dounce homogenizer. Extracts (20 μg) are adjusted to 1 mg/ml, supplemented with either 1 mM CaCl2 or 1 mM EGTA and then mixed for 2 h with 6 μl CaM-agarose. After washing three times with 1 ml of the corresponding binding buffer, the beads are eluted with buffer A containing 5 mM EGTA. Equal portions of the unbound and EGTA-eluted fractions are analysed by immunoblofting with anti-Ndr antibodies.
# Samples are separated by SDS-PAGE and electroblotted to Immobilon-P membranes (Millipore). Blots are incubated in blocking buffer (50 mM Tris-HCl pH 7.5, 150 mM NaCl, 1% (v/v) Triton X-1 00, 0.5% (v/v) Tween 20, 5% (w/v) skim milk powder) and then probed for 2 h with primary antibodies diluted in the same buffer. Ndr and GST-Ndr are detected with Ab^452-465 at 4 μg/ml (Millward, T. A., et al., Op. Cit.); GST is detected with an anti-GST antiserum (1 :1000 dilution). Bound antibodies are detected using horseradish peroxidase-conjugated donkey anti-rabbit IgG antibodies and ECL substrates (Amersham).
# To verify whether this domain of Ndr is indeed responsible for its interaction with CaM, deletion mutants of Ndr are expressed in COS-1 cells and tested for CaM binding as above. […] In lysates supplemented with Ca^2 , deletion of amino acids 65-81 cause a large reduction in CaM binding (to ~10% of the level of wild-type binding) as assessed by western blotting.
# GST-Ndr [4] = molecular target: T1, GST-Ndr; assay: GST-Ndr peptide kinase assay with calcium-binding proteins; assay type: biochemical; conditions: added together with Ca^2+; 60 min, 30° C.
# Protocol: 1 μg GST-Ndr WT or GST-Ndr K118A, either in solution or immobilised on glutathione-agarose beads, is assayed in a 20 μl reaction containing 20 mM Tris-HCl pH 7.5, 5 mM MgCl2, 1 mM dithiothreitol, 100 μM [γ-^32 P] […] Reactions are supplemented with either 2 mM EGTA or various concentrations of CaCl2. Bovine CaM, bovine S100B (both from Sigma) or recombinant calcium-binding proteins. After incubation at 30° C. for 60 min, aliquots of the reaction are spotted on to P81 phosphocellulose paper and counted as above.
# In brief, coding regions are cloned into the PGEMEX expression vector (Promega) and resultant plasmids used to transform E. coli BL-21 LysS cells. After induction, S100 proteins are purified by ammonium sulphate precipitation followed by Ca^2+ -dependent phenyl-Sepharose chromatography.
# The proteins are added together with Ca^2+ into GST-N dr peptide kinase assays. The proteins tested comprised S100A1 (S100α), S100A2 (S100L), S100A4 (CAPL), S100A6 (calcyclin) and S100B (S100β); α-parvalbumin is included as a negative control.
# In order to estimate the binding affinity of S100B for Ndr, kinase assays are performed in which GST-Ndr is mixed with various concentrations of purified bovine S100B homodimer, in the presence or absence of calcium.
# To determine whether activation of Ndr by S100B occurs at physiological Ca^2+ concentrations, Ndr activity is assayed with or without added S100B over a range of Ca^2+ concentrations.
# PP2A = conditions: 10 nM calyculin A; cited from earlier work
# HA-Ndr WT [5] = conditions: 10 nM, 1 h
# Protocol: COS-1 cells expressing HA-Ndr WT (as in Example 5) are treated either with solvent alone (Control) or with a panel of cell permeable protein phosphatase inhibitors. The cells are then extracted, HA-Ndr is immunoprecipitated with the anti-HA mAb 12CA5, and the kinase activity of Ndr measured as before, using the peptide substrate.
# [6] = system: protein phosphatase 1 (PP1); conditions: 10 nM calyculin A; cited from earlier work
# T1 sequence (Q15208 whole entry): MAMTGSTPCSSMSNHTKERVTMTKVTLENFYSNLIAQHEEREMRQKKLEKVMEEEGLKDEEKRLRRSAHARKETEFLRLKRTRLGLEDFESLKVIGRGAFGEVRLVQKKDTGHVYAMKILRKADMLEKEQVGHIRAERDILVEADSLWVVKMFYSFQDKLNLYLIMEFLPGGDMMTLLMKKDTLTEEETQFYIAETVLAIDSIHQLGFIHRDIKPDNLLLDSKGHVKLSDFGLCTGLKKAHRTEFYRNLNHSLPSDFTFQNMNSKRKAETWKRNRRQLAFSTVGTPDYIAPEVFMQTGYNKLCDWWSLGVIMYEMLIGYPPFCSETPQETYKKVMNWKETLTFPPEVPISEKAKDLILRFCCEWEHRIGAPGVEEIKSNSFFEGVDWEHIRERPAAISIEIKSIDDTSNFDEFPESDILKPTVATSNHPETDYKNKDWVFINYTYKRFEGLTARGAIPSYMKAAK
Relative Ndr Activity (GST-Ndr [1]) [%],Compound,further results
0,KKRNRTLSPA [SEQ. ID. No. 10],
0,AARNRTLSVA [SEQ. ID. No. 7],
0,KKRNRTLTV [SEQ. ID. No. 9],
24,KKRNRTLSV [SEQ. ID. No. 8],
15,KKRNARLSVA [SEQ. ID. No. 4],
30,KKRNRALSVA [SEQ. ID. No. 5],

# Second part, the compound before the results:
Compound,Relative Ndr Activity (GST-Ndr [1]) [%],further results
myelin basic protein,,substrate of Ndr (Ndr): not substrates of Ndr
KKLNRRLSVA [SEQ. ID. No. 3],18,
KARNRRLSVA (LARNRRLSVA) [SEQ. ID. No. 2],39,
casein,,substrate of Ndr (Ndr): not substrates of Ndr
CNc1ccc2oc(C[C@H]3O[C@@]4(CC[C@H]3C)O[C@H]([C@H](C)C(=O)c3ccc[nH]3)[C@H](C)C[C@H]4C)nc2c1C(=O)O [A23187],,activation of HA-Ndr (HA-Ndr WT [2]): activation of HA-Ndr WT
Δ1-84: Ndr deletion mutant lacking the complete amino terminal domain,,basal kinase activity [3]: only slightly reduced; also recorded: reduced basal kinase activity; co-immunoprecipitation with anti-S100B (S100B): abolishes co-immunoprecipitation; binding to CaM-agarose (calmodulin (CaM-agarose)): no longer detectable
"S100A1: S100 family protein, phylogenetically the closest known relative of S100B",,increase in Ndr kinase activity (GST-Ndr [4]): 2-3 fold
KKRNRRLSVA [SEQ. ID. No. 1],100,
COC[C@@H]([C@H](O)[C@H](O)C(=O)NCC[C@H](C)c1nc(/C=C/C[C@@H]2O[C@]3(C[C@@H](O)[C@@H]2C)O[C@H]([C@H](C[C@H](O)[C@H](C)[C@H](O)[C@H](C)/C=C(C)/C(C)=C/C=C/C(C)=C\C#N)OC)[C@H](OP(=O)(O)O)C3(C)C)co1)N(C)C [calyculin A],,inhibition of PP2A (PP2A): ~ 50%; activation of Ndr (HA-Ndr WT [5]): ~ 4 fold; inhibition of PP1 [6]: ~ 50%
KKRNRTLSVA [SEQ. ID. No. 6],60,
